Test results reported in article PMC6669014.

Target: NRTN-GFRα2 complex (wild type) (human) (UniProt Q99748)
Assay: SPR

Sequence of UniProt Q99748 (Q99748 97-197, chain 1 of 2): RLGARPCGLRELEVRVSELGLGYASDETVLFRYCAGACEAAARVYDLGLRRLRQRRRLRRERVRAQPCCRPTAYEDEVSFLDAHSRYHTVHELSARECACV
Sequence of UniProt Q99748 (O00451 22-441, chain 2 of 2, further chain): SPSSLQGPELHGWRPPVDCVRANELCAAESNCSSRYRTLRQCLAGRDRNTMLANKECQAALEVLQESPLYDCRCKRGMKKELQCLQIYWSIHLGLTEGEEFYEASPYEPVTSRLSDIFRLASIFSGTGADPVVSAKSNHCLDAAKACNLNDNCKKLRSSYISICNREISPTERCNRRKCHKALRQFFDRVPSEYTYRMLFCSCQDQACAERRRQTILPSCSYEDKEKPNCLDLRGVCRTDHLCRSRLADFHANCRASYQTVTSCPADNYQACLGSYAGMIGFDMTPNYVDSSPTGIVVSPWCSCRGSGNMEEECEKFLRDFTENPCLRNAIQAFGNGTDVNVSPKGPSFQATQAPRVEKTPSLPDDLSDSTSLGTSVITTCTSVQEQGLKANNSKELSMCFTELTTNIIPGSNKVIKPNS

human RET extracellular domain (RET^ECD, 29 to 635) (from UniProt P07949 29-635) (receptor)
increase in response over NRTN alone: 150 RU
